These results are taken from PMC5587807.

The subject of data set [1] is DNA polymerase beta (Pol β) WT (human). Put plainly: EMSA. The settings on record: EMSA: 50 nM substrate, 50 mM Hepes pH 7.5, 37 mM KCl, 5 mM MgCl2, 0.5 mM EDTA, 100 ug/ml BSA, on ice 10 min, gel at 4 C, FA: 50 mM Hepes pH 7.5, 20 mM KCl, 2 mM. Background: Mobility shift assays separate free from complexed probe on a gel.
Data set [2] relates to Pol β V303C, 5-iodoacetamidofluorescein labeled. As to the kind of experiment: fluorescence anisotropy. The following applies: 5'-phosphorylated tetrahydrofuran at 5' end of nick; biotin at 5' ends; EMSA: 50 nM substrate, 50 mM Hepes pH 7.5, 37 mM KCl, 5 mM MgCl2, 0.5 mM EDTA, 100 ug/ml BSA, on ice 10 min, gel at 4 C; FA: 50 mM Hepes pH 7.5, 20 mM KCl, 2 mM. A general note: In fluorescence polarisation assays a small probe gives low polarisation when free and higher when bound to something large.

The mark [3] stands for this setting: 5'-phosphorylated tetrahydrofuran at 5' end of nick.

The Kd is the free concentration of one partner at which half of the binding sites on the other are occupied at equilibrium, for simple one-to-one binding. A higher Kd goes with weaker binding.

On to DNA-5'-P-THF-O (-35), for which the equilibrium dissociation constant (Kd) in data set [1] (setting [3]) amounted to 20 nM.

Consider DNA-gI (-49), for which the equilibrium dissociation constant (Kd) in data set [1] (5'-phosphate and 3'-OH at gap) came to 30 nM.

DNA-gO (-35) had a dissociation constant Kd in data set [1] (5'-phosphate and 3'-OH at gap) of 20 nM.

On to NCP-5'-P-THF-O (-35), for which the Kd in data set [1] (setting [3]) turned out to be 360 nM.

The substance NCP-5'-P-THF-O (-35), 5'-biotin returned a dissociation constant (Kd) in data set [2] of 280 nM.

Take NCP-gI (-49): the dissociation constant (Kd) in data set [1] (5'-phosphate and 3'-OH at gap) was found to be 170 nM.

NCP-gO (-35) returned a dissociation constant (Kd) in data set [1] (5'-phosphate and 3'-OH at gap) of 460 nM. This Kd is about 2.7-fold higher than that of the substance before.

The substance UND NCP displayed a Kd in data set [1] of 740 nM.

UND-DNA displayed a dissociation constant Kd in data set [1] of 50 nM.
